Read-outs that look alike come from different tables or passages of the source.
How the values were obtained:
Ube2D3(C85S) [1] = target: T1, Ube2D3(C85S) (human, UniProt P61077 1-147, C85S); experiment: NMR titration
Ube2D3(C85S) [2] = target: T1, Ube2D3(C85S); experiment: NMR titration; remark: listed apart in the source
Ube2D1 = Ube2D1 (human, UniProt P51668 1-147); experiment: ITC
Ube2D1, sequence (P51668 whole entry): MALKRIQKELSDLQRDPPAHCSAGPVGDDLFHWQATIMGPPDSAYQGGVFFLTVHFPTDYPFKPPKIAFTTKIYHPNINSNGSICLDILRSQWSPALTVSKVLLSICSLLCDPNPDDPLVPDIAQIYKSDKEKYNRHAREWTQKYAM

T1 sequence (P61077 whole entry C85S): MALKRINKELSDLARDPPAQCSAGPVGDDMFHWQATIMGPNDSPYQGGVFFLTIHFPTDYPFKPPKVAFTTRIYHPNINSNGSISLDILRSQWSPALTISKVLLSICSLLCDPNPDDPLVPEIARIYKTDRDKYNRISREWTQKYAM

Row | binding result (Ube2D1) | Binder | other results
1 | binds | UHRF1-UBL W2V (domain or fragment, human, UniProt Q96T88 1-76, looked up) MVIQVRTMDGRQTHTVDSLSRLTKVEELRRKIQELFHVEPGLQRLFYRGKQMEDGHTLFDYEVRLNDTIQLLVRQS | –
2 | binds | UHRF1-UBL F59V (domain or fragment, human, UniProt Q96T88 1-76, looked up) MWIQVRTMDGRQTHTVDSLSRLTKVEELRRKIQELFHVEPGLQRLFYRGKQMEDGHTLVDYEVRLNDTIQLLVRQS | –

Second part, the binder before the results:

Row | Binder | binding result (Ube2D1) | other results
3 | UHRF2-UBL (residues 1–81) (domain or fragment, UniProt Q96PU4 1-81, looked up) MWIQVRTIDGSKTCTIEDVSRKATIEELRERVWALFDVRPECQRLFYRGKQLENGYTLFDYDVGLNDIIQLLVRPDPDHLP | – | Kd (Ube2D3(C85S) [1]): 215 µM
4 | UHRF1-UBL (residues 1–76) (domain or fragment, human, UniProt Q96T88 1-76, looked up) MWIQVRTMDGRQTHTVDSLSRLTKVEELRRKIQELFHVEPGLQRLFYRGKQMEDGHTLFDYEVRLNDTIQLLVRQS | – | Kd (Ube2D3(C85S) [2]): 15 µM
5 | UHRF1-UBL K50R (domain or fragment, human, UniProt Q96T88 1-76, looked up) MWIQVRTMDGRQTHTVDSLSRLTKVEELRRKIQELFHVEPGLQRLFYRGRQMEDGHTLFDYEVRLNDTIQLLVRQS | binds | –
6 | UHRF1-UBL L65A (domain or fragment, human, UniProt Q96T88 1-76, looked up) MWIQVRTMDGRQTHTVDSLSRLTKVEELRRKIQELFHVEPGLQRLFYRGKQMEDGHTLFDYEVRANDTIQLLVRQS | binds | –

— article PMC6239910 (Molecular cell, 2018)
